Results as given in the supplement of paper PMC10126150.
± gives the standard deviation of the averaged measurements.

Test system: ATP
Experiment: switch fluorescence ratio, 500 uM ATP over buffer (Cy3 cluster intensity, sum of 5 cycles each) (fold (ratio)); higher = stronger signal-on switching upon ATP binding; sequences stand for … in TCGTCGGCAGCGTCAGATGTGTATAAGAGACAGTTTTTTTTTTTTTTTTTTTTTTTTT…TC
Conditions: aptamer strand: ATP DNA aptamer (quencher-CACCTGGGGGAGTATTGCGGAGGAAGG + anchor), 100 nM annealed; ATP concentration: 500 uM
In short: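 Clusters with intensities outside 100-1000 RFU were excluded. The remaining Cy3-labelled switching-strand clusters on a modified Illumina MiSeq flow-cell had been annealed to 100 nM quencher-labelled ATP aptamer and imaged in selection buffer, then after 15 min with 500 uM ATP at 22 °C, for five cycles separated by NaOH stripping and re-annealing. The fluorescence ratio, averaged per switch-domain sequence, is each cluster's summed target-cycle Cy3 intensity over its summed buffer-cycle Cy3 intensity.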
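Further: ATP exposure 15 min at 22 °C before imaging.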

GGGCGCGAAC gave a switch fluorescence ratio of 1.06 ± 0.018.
GGGCGCTTTC gave a switch fluorescence ratio of 1.03 ± 0.028.
GGGCGGCACG was tested, and the switch fluorescence ratio was 0.966 ± 0.054.
GGGCGGCCTA gave a switch fluorescence ratio of 0.999 ± 0.021.
Sequence GGGCGGCCTT has a switch fluorescence ratio of 1.03 ± 0.068.
With GGGCGGGGGG the switch fluorescence ratio was 1.01 ± 0.03.
In the case of GGGCGGGGTA, the switch fluorescence ratio is reported as 1.01 ± 0.027.
For GGGCGGTGTC, the switch fluorescence ratio was 1.01 ± 0.042.
GGGCGTTGGG gave a switch fluorescence ratio of 0.948 ± 0.059.
For GGGCGTTTGA, the switch fluorescence ratio was 1 ± 0.046.
GGGCTAGGGT was tested, and the switch fluorescence ratio was 1.02 ± 0.023.
GGGCTATATT was tested, and the switch fluorescence ratio was 0.9904 ± 0.0084.
GGGCTATTAG was tested, and the switch fluorescence ratio was 0.98 ± 0.013.
GGGCTCAGAA was tested, and the switch fluorescence ratio was 1.03 ± 0.028.
In the case of GGGCTGGCTG, the switch fluorescence ratio is reported as 0.998 ± 0.062.
In the case of GGGCTGGGTC, the switch fluorescence ratio is reported as 0.98 ± 0.038.
GGGCTTAAAA was tested, and the switch fluorescence ratio was 0.98424 ± 0.00098.
In the case of GGGCTTGTAA, the switch fluorescence ratio is reported as 0.964 ± 0.012.
GGGCTTTAAG was tested, and the switch fluorescence ratio was 1.03 ± 0.04.
GGGCTTTAAT showed a switch fluorescence ratio of 0.992 ± 0.015.
GGGCTTTCTG gave a switch fluorescence ratio of 0.98 ± 0.05.
GGGCTTTGGG gave a switch fluorescence ratio of 1.008 ± 0.0068.
For GGGGAAAACG, the switch fluorescence ratio was 0.989 ± 0.015.
Sequence GGGGAAAAGC has a switch fluorescence ratio of 1.04 ± 0.014.
Sequence GGGGAAACAG has a switch fluorescence ratio of 1 ± 0.018.
For GGGGAAACGT, the switch fluorescence ratio was 1.12 ± 0.035.
GGGGAAATCC was tested, and the switch fluorescence ratio was 1.02 ± 0.046.
GGGGAAATTT gave a switch fluorescence ratio of 1.02 ± 0.028.
In the case of GGGGAAGAAA, the switch fluorescence ratio is reported as 0.995 ± 0.027.
Sequence GGGGAAGCGC has a switch fluorescence ratio of 1.01 ± 0.068.
GGGGAAGGG gave a switch fluorescence ratio of 1.12 ± 0.24.
In the case of GGGGAAGGGA, the switch fluorescence ratio is reported as 1 ± 0.031.
GGGGAAGGGC showed a switch fluorescence ratio of 1.02 ± 0.053.
GGGGAAGTGC was tested, and the switch fluorescence ratio was 1.01 ± 0.055.
GGGGAATACA was tested, and the switch fluorescence ratio was 1.02 ± 0.017.
Sequence GGGGAATGGA has a switch fluorescence ratio of 0.982 ± 0.028.
GGGGAATTGA gave a switch fluorescence ratio of 0.9919 ± 0.0013.
For GGGGAATTGG, the switch fluorescence ratio was 0.994 ± 0.024.
Sequence GGGGACAAAT has a switch fluorescence ratio of 1.05 ± 0.0011.
Sequence GGGGACAGTG has a switch fluorescence ratio of 1.01 ± 0.13.
In the case of GGGGACCAAT, the switch fluorescence ratio is reported as 1 ± 0.016.
GGGGACGGAC was tested, and the switch fluorescence ratio was 1.04 ± 0.035.
For GGGGACTGCG, the switch fluorescence ratio was 1.05 ± 0.023.
In the case of GGGGACTTAT, the switch fluorescence ratio is reported as 1.02 ± 0.017.
For GGGGACTTGT, the switch fluorescence ratio was 0.9988 ± 0.0082.
Sequence GGGGACTTTG has a switch fluorescence ratio of 1.09 ± 0.073.
GGGGACTTTT was tested, and the switch fluorescence ratio was 0.99 ± 0.026.
For GGGGAGAATG, the switch fluorescence ratio was 0.9802 ± 0.0069.
In the case of GGGGAGAGAG, the switch fluorescence ratio is reported as 0.9747 ± 0.0073.
GGGGAGATTC showed a switch fluorescence ratio of 0.994 ± 0.013.
GGGGAGCGAG gave a switch fluorescence ratio of 1.02 ± 0.046.
GGGGAGCTAC was tested, and the switch fluorescence ratio was 1.17 ± 0.038.
With GGGGAGGACA the switch fluorescence ratio was 1.04 ± 0.082.
For GGGGAGGCCT, the switch fluorescence ratio was 1.01 ± 0.031.
GGGGAGGGAA gave a switch fluorescence ratio of 1.01 ± 0.027.
In the case of GGGGAGGTGT, the switch fluorescence ratio is reported as 1.05 ± 0.066.
GGGGAGTACT gave a switch fluorescence ratio of 1.34 ± 0.44.
GGGGAGTATT gave a switch fluorescence ratio of 0.971 ± 0.015.
GGGGAGTTTC showed a switch fluorescence ratio of 1.065 ± 0.0042.
For GGGGATAGAA, the switch fluorescence ratio was 0.982 ± 0.014.
GGGGATAGGG showed a switch fluorescence ratio of 0.985 ± 0.016.
GGGGATATGA gave a switch fluorescence ratio of 0.995 ± 0.049.
With GGGGATCAGG the switch fluorescence ratio was 1.03 ± 0.075.
Sequence GGGGATGAAT has a switch fluorescence ratio of 1 ± 0.024.
In the case of GGGGATGAGG, the switch fluorescence ratio is reported as 0.9698 ± 0.0095.
Work on GGGGATTGGA yielded a switch fluorescence ratio of 0.979 ± 0.031.
Sequence GGGGATTGGG has a switch fluorescence ratio of 0.987 ± 0.028.
In the case of GGGGATTTAG, the switch fluorescence ratio is reported as 0.971 ± 0.027.
GGGGATTTAT showed a switch fluorescence ratio of 0.997 ± 0.019.
Work on GGGGATTTCT yielded a switch fluorescence ratio of 0.99526 ± 0.00079.
In the case of GGGGCAAAGG, the switch fluorescence ratio is reported as 1.03 ± 0.075.
GGGGCACAGC showed a switch fluorescence ratio of 1 ± 0.016.
Sequence GGGGCACGTG has a switch fluorescence ratio of 0.995 ± 0.015.
GGGGCACTGC showed a switch fluorescence ratio of 1.008 ± 0.0024.
Work on GGGGCACTGT yielded a switch fluorescence ratio of 1.01 ± 0.013.
For GGGGCAGTCA, the switch fluorescence ratio was 0.9785 ± 0.0031.
For GGGGCATGGG, the switch fluorescence ratio was 0.995 ± 0.033.
GGGGCCCGGG gave a switch fluorescence ratio of 1.04 ± 0.036.
Sequence GGGGCCGGGG has a switch fluorescence ratio of 1.01 ± 0.018.
GGGGCCGTTA was tested, and the switch fluorescence ratio was 1.012 ± 0.0042.
GGGGCGGCAG showed a switch fluorescence ratio of 0.998 ± 0.013.
Sequence GGGGCGGCCC has a switch fluorescence ratio of 1.03 ± 0.049.
GGGGCGGCGT gave a switch fluorescence ratio of 1.02 ± 0.065.
Work on GGGGCGGGAT yielded a switch fluorescence ratio of 1.01 ± 0.02.
Work on GGGGCGGTCT yielded a switch fluorescence ratio of 0.9667 ± 0.004.
GGGGCGTAGT showed a switch fluorescence ratio of 0.9995 ± 0.0075.
GGGGCGTGGG was tested, and the switch fluorescence ratio was 0.963 ± 0.042.
Work on GGGGCGTTAT yielded a switch fluorescence ratio of 0.969 ± 0.048.
GGGGCTAATG showed a switch fluorescence ratio of 1.01 ± 0.023.
GGGGCTAGAT showed a switch fluorescence ratio of 1.034 ± 0.0076.
With GGGGCTAGTA the switch fluorescence ratio was 0.991 ± 0.035.
With GGGGCTAGTG the switch fluorescence ratio was 0.977 ± 0.046.
GGGGCTATTT was tested, and the switch fluorescence ratio was 1.01 ± 0.066.
Work on GGGGCTGCAG yielded a switch fluorescence ratio of 1.09 ± 0.11.
GGGGCTGTTG gave a switch fluorescence ratio of 0.966 ± 0.024.
With GGGGCTTAAG the switch fluorescence ratio was 1.02 ± 0.035.
With GGGGCTTCTT the switch fluorescence ratio was 0.9823 ± 0.0038.
GGGGCTTGAC gave a switch fluorescence ratio of 1.01 ± 0.022.
For GGGGCTTGGC, the switch fluorescence ratio was 0.999 ± 0.031.
GGGGCTTGGG showed a switch fluorescence ratio of 0.989 ± 0.043.
GGGGGAAAAG gave a switch fluorescence ratio of 1.03 ± 0.1.
For GGGGGAAAAT, the switch fluorescence ratio was 0.993 ± 0.042.
For GGGGGAACGG, the switch fluorescence ratio was 1.08 ± 0.1.
In the case of GGGGGAAGCG, the switch fluorescence ratio is reported as 0.9685 ± 0.0034.
In the case of GGGGGAAGGC, the switch fluorescence ratio is reported as 1.15 ± 0.23.
GGGGGAAGTT was tested, and the switch fluorescence ratio was 0.986 ± 0.042.
In the case of GGGGGAATCC, the switch fluorescence ratio is reported as 1.06 ± 0.08.
Work on GGGGGACAGC yielded a switch fluorescence ratio of 0.992 ± 0.023.
Sequence GGGGGACGGC has a switch fluorescence ratio of 0.985 ± 0.049.
For GGGGGACGGG, the switch fluorescence ratio was 1.02 ± 0.029.
GGGGGACTAG gave a switch fluorescence ratio of 1.02 ± 0.024.
With GGGGGACTTG the switch fluorescence ratio was 0.997 ± 0.021.
GGGGGAGACA gave a switch fluorescence ratio of 0.997 ± 0.027.
For GGGGGAGGCG, the switch fluorescence ratio was 1.03 ± 0.082.
In the case of GGGGGAGGT, the switch fluorescence ratio is reported as 0.986 ± 0.038.
GGGGGAGTGG gave a switch fluorescence ratio of 0.982 ± 0.054.
GGGGGATTCC showed a switch fluorescence ratio of 1.02 ± 0.017.
Work on GGGGGCAAGA yielded a switch fluorescence ratio of 0.999 ± 0.06.
Work on GGGGGCACG yielded a switch fluorescence ratio of 1.006 ± 0.0098.
GGGGGCATCA showed a switch fluorescence ratio of 1.07 ± 0.12.
GGGGGCCATG gave a switch fluorescence ratio of 1.03 ± 0.068.
GGGGGCGGAC was tested, and the switch fluorescence ratio was 0.974 ± 0.097.
Work on GGGGGCGGCA yielded a switch fluorescence ratio of 0.988 ± 0.042.
With GGGGGCGGGC the switch fluorescence ratio was 1.01 ± 0.081.
GGGGGCGTGT was tested, and the switch fluorescence ratio was 0.977 ± 0.019.
In the case of GGGGGCTAAA, the switch fluorescence ratio is reported as 1.02 ± 0.017.
GGGGGCTGCA was tested, and the switch fluorescence ratio was 1.02 ± 0.032.
In the case of GGGGGCTGGG, the switch fluorescence ratio is reported as 0.992 ± 0.025.
Sequence GGGGGCTTGG has a switch fluorescence ratio of 0.998 ± 0.032.
GGGGGGAAAC showed a switch fluorescence ratio of 1 ± 0.022.
For GGGGGGAAAT, the switch fluorescence ratio was 1.01 ± 0.057.
With GGGGGGACGG the switch fluorescence ratio was 0.969 ± 0.04.
In the case of GGGGGGACTT, the switch fluorescence ratio is reported as 0.983 ± 0.029.
Work on GGGGGGAGTC yielded a switch fluorescence ratio of 1.05 ± 0.028.
GGGGGGAGTG was tested, and the switch fluorescence ratio was 0.975 ± 0.029.
GGGGGGATTG showed a switch fluorescence ratio of 0.99 ± 0.025.
GGGGGGCATC was tested, and the switch fluorescence ratio was 1.01 ± 0.024.
In the case of GGGGGGCGGT, the switch fluorescence ratio is reported as 0.989 ± 0.015.
GGGGGGCTTA gave a switch fluorescence ratio of 0.999 ± 0.018.
Sequence GGGGGGGAT has a switch fluorescence ratio of 1.02 ± 0.025.
GGGGGGGCCG gave a switch fluorescence ratio of 0.993 ± 0.048.
With GGGGGGGCGG the switch fluorescence ratio was 1 ± 0.024.
In the case of GGGGGGGGAG, the switch fluorescence ratio is reported as 1.01 ± 0.03.
For GGGGGGGGCC, the switch fluorescence ratio was 0.998 ± 0.053.
With GGGGGGGTAT the switch fluorescence ratio was 1.01 ± 0.036.
In the case of GGGGGGGTGA, the switch fluorescence ratio is reported as 1.01 ± 0.038.
GGGGGGGTT was tested, and the switch fluorescence ratio was 1 ± 0.025.
With GGGGGGGTTT the switch fluorescence ratio was 1.01 ± 0.074.
In the case of GGGGGGTAAG, the switch fluorescence ratio is reported as 1 ± 0.021.
GGGGGGTCGC was tested, and the switch fluorescence ratio was 0.99 ± 0.041.
GGGGGGTGG was tested, and the switch fluorescence ratio was 0.9912 ± 0.0055.
For GGGGGGTGTC, the switch fluorescence ratio was 1.01 ± 0.038.
GGGGGTAAAA gave a switch fluorescence ratio of 1.01 ± 0.029.
